{"source": "patent US20150224191A1", "about": "(VEGENICS, published 2015)", "binders": {"B1": {"name": "VEGF-C antibody VGX-100 (antibody, human IgG1, lambda, V domains shown)", "VH": "EVRLLESGGGLVQPGGSLRLSCAASGFTFRPRAMAWVRQAPGKGLEWVSSISAQGASAYYADSVKGRFTISRDNSKNTLYLQMNSLRAEDTAVYYCARDLSVSGFGPWGRGTMVTVSS", "VL": "SYELTQPPSSSGTPGQRVTISCSGSSSNIGRHTVSWYQQVPGTAPKLLIYSDDHRPSGVPDRFSASKSGTSASLTITGLQSEDEADYYCAAWDDSLNGPWVFGGGTKLTVLG"}}, "key": {"VEGF-C [1]": {"target": "T1, VEGF-C (human, UniProt P49767 103-227, limits assumed)", "T1 sequence": "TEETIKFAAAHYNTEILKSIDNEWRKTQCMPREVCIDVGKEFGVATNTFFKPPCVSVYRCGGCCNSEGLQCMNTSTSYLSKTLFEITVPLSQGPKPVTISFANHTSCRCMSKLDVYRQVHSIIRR", "experiment": "cell-based or functional assay"}, "VEGF-C [2]": {"target": "T1, VEGF-C", "experiment": "BiaCore (SPR); format not described"}, "VEGF-C [3]": {"target": "T1, VEGF-C", "experiment": "cell-based or functional assay", "remark": "listed apart in the source"}, "VEGF-C Dimer": {"target": "T2, VEGF-C Dimer (Homodimer of two identical chains. The nature of the dimer linkage is not stated in the passages seen.)", "T2 construct": "a form of m2; also called dimer form of VEGF-C", "T2 chain 1": "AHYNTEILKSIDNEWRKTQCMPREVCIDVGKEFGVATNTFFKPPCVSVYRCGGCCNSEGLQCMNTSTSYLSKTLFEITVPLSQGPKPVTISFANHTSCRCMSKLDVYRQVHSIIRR", "T2 chain 2": "T2 chain 1", "experiment": "direct binding ELISA, antigen coated as capture antigen, bound VGX-100 detected with rabbit anti-human IgG-HRP, Abs 450 nm"}, "VEGF-C Monomer": {"target": "T3, VEGF-C Monomer", "T3 construct": "a form of m2; also called monomer form of VEGF-C", "T3 chain": "T2 chain 1", "experiment": "direct binding ELISA, antigen coated as capture antigen, bound VGX-100 detected with rabbit anti-human IgG-HRP, Abs 450 nm"}}}
{"binder": "B1", "values": [{"measurement": "IC50 (read off the curve); [3H]-thymidine incorporation of BA/F3-VEGFR-3/EpoR cells as percent of ligand alone; blocked: VEGF-C binding to VEGFR-3", "setting": "VEGF-C [1]", "result": "~0.04", "unit": "µg/mL"}, {"measurement": "Kd", "setting": "VEGF-C [2]", "result": 1.8, "unit": "nM"}, {"measurement": "IC50 (read off the curve); [3H]-thymidine incorporation of BA/F3-VEGFR-2/EpoR cells as percent of ligand alone; blocked: VEGF-C binding to VEGFR-2", "setting": "VEGF-C [3]", "result": "~0.03", "unit": "µg/mL"}, {"measurement": "EC50 (read off the curve)", "setting": "VEGF-C Dimer", "result": "~0.001", "unit": "µg/mL"}, {"measurement": "EC50 (read off the curve)", "setting": "VEGF-C Monomer", "result": "~0.001", "unit": "µg/mL"}]}
